In paper PMC3852207, “The Structure of the RLIP76 RhoGAP-Ral Binding Domain Dyad: Fixed Position of the Domains Leads to Dual Engagement of Small G Proteins at the Membrane” (Structure(London, England:1993), 2013):

B3: His-RLIP76 GAP insert (RLIP76 GAP domain with the F-G loop of p50 RhoGAP) (domain or fragment)
chain: PNLKPIFGIPLADAVERTMMYDGIRLPAVFRECIDYVEKYGMKCEGIYRVSGIKSKVDELKAAYDREESTNLEDYEPNTVASLLKQYLRDLPENLLTKELMPRFEEACGRTTETEKVQEFQRLLKELPECNYLLISWLIVHMDHVIAKELETKMNIQNISIVLSPTVLWAKDAAITLKAINPINRVLYVFFTHVQELFGNVVLKQVMKPL
notes: Made from the pET16b RLIP GAP domain construct; also called GAP insert mutant; RLIP76 GAP insert domain

Columns and labels:
[1] = target: T1, His-RLIP76 GAP-GBD didomain (residues 184-446) (human, UniProt Q15311 184-446); test: not stated; data not shown
T1 construct: Construct details are in Rajasekar et al., 2012; also called RLIP76 didomain; RhoGAP-GBD didomain; source: expressed and purified as described previously (Rajasekar et al., 2012)
T1 sequence (looked up): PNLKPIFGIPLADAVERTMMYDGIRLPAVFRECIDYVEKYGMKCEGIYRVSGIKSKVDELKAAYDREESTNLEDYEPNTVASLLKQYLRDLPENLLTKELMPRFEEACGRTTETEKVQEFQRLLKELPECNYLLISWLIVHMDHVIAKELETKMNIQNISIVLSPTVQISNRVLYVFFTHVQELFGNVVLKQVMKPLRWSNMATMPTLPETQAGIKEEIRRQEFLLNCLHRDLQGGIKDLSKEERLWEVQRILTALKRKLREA

[2] = target: B3; test: scintillation proximity assay (competition); competitor titrated into 30 nM [3H]GTP·Rac1 or [3H]GTP·Cdc42 and 30 nM GST-p50 RhoGAP immobilised on fluoromicrospheres via an anti-GST antibody; partial competition model for RLIP76 GAP and didomain, full competition for GAP insert and free p50 RhoGAP; settings: both partners purified
[3] = target: T2, GST-PAK1 (UniProt Q13153 1-545); test: scintillation proximity assay (direct); GST-PAK1 on SPA beads as control binding partner; concentration of Q61L Rac1/Cdc42·[3H]GTP varied; apparent Kd; settings: both partners purified
T2 construct: PAK1, positive control effector of Cdc42 and Rac1

[4] = target: Q61L Rac1·[3H]GTP (UniProt P63000 1-192, Q61L); test: scintillation proximity assay (competition); competitor titrated into 30 nM [3H]GTP·Rac1 or [3H]GTP·Cdc42 and 30 nM GST-p50 RhoGAP immobilised on fluoromicrospheres via an anti-GST antibody; partial competition model for RLIP76 GAP and didomain, full competition for GAP insert and free p50 RhoGAP; settings: both partners purified

B1: RalB (natural protein, UniProt P11234 1-206, looked up)
chain: MAANKSKGQSSLALHKVIMVGSGGVGKSALTLQFMYDEFVEDYEPTKADSYRKKVVLDGEEVQIDILDTAGQEDYAAIRDNYFRSGEGFLLVFSITEHESFTATAEFREQILRVKAEEDKIPLLVVGNKSDLEERRQVPVEEARSKAEEWGVQYVETSAKTRANVDKVFFDLMREIRTKKMSENKDKNGKKSSKNKKSFKERCCLL
notes: RalB small GTPase
- Kd [1]: ~200 nM

B2: Q61L Cdc42·[3H]GTP (natural protein)
chain: not shown
notes: Cdc42, GTPase-deficient mutant Q61L, loaded with [3H]GTP; Q61L is stated for the SPA experiments in general; also called [3H]GTP·Cdc42
- Kd [2]: 1270 nM
- Kd [3]: 32 nM

Binder: B3
- Kd [4]: 1440 nM
